Switch fluorescence ratio data for 79 sequences are collected here from the supplement of paper PMC10126150.

± gives the standard deviation of the averaged measurements.

The data set relates to ATP. The experiment in a line: switch fluorescence ratio, 500 uM ATP over buffer (Cy3 cluster intensity, sum of 5 cycles each) (fold (ratio)); higher = stronger signal-on switching upon ATP binding; sequences stand for … in TCGTCGGCAGCGTCAGATGTGTATAAGAGACAGTTTTTTTTTTTTTTTTTTTTTTTTT…TC. The note with it: aptamer strand: ATP DNA aptamer (quencher-CACCTGGGGGAGTATTGCGGAGGAAGG + anchor), 100 nM annealed; ATP concentration: 500 uM. In outline: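 Cy3-labelled switching-strand clusters on a modified Illumina MiSeq flow-cell were annealed to 100 nM quencher-labelled ATP aptamer, imaged in selection buffer, then imaged after 15 min with 500 uM ATP at 22 °C. Five buffer/ATP cycles ran, with NaOH stripping and re-annealing between them. The fluorescence ratio is summed target-cycle over summed buffer-cycle Cy3 intensity per cluster, averaged per switch-domain sequence. Clusters outside 100-1000 RFU were excluded.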
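Note: ATP exposure 15 min at 22 °C before imaging.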

GTATGGGGGC: the switch fluorescence ratio worked out at 0.974 ± 0.063.

For the sequence CTAGGGGAGA, the switch fluorescence ratio is 1.018 ± 0.0038.

In the case of CCTAAAAAGG, the switch fluorescence ratio is 1.26 ± 0.29.

ATCTGGGTTA: the switch fluorescence ratio came out at 0.993 ± 0.013.

Regarding GGTTATCTTG, the switch fluorescence ratio is 1.01 ± 0.019.

With CGCCCGCTGT, the switch fluorescence ratio was 1.72 ± 0.65.

For the sequence GCGGGGATCT, the switch fluorescence ratio stood at 1.038 ± 0.0091.

For the sequence AATTTGCAGT, the switch fluorescence ratio was determined as 1.004 ± 0.0043.

On to TCGATGGCAG, for which the switch fluorescence ratio was 1.059 ± 0.0033.

As to TGAATCAATT, the switch fluorescence ratio turned out to be 1.06 ± 0.026.

As to CGCCTCATTT, the switch fluorescence ratio came out at 1 ± 0.03.

For CGATTTTAGG, the switch fluorescence ratio turned out to be 1 ± 0.035.

For the sequence TCTTCGGTTT, the switch fluorescence ratio came out at 1.11 ± 0.12.

On to CGTGCAGCGG, for which the switch fluorescence ratio is 1 ± 0.014.

As for TTTCCTTGAA, the switch fluorescence ratio is 0.974 ± 0.017.

On to CGGGGGAGAG, for which the switch fluorescence ratio amounted to 0.9847 ± 0.009.

With TTGATCGGTG, the switch fluorescence ratio was 0.999 ± 0.023.

Turning to GTCTACATTG, the switch fluorescence ratio amounted to 0.997 ± 0.01.

AGGAATTTTC: the switch fluorescence ratio was 0.994 ± 0.032.

Regarding CCGTGAGGGT, the switch fluorescence ratio came out at 1.02 ± 0.038.

For TTGGTTATCT, the switch fluorescence ratio was determined as 1.01 ± 0.035.

GGGGGTGGCG: the switch fluorescence ratio came to 0.973 ± 0.021.

Regarding CAGCTTGATA, the switch fluorescence ratio is 0.979 ± 0.018.

For CAGTAGGGTA, the switch fluorescence ratio came out at 1 ± 0.045.

Consider TTTTCTGGTT, for which the switch fluorescence ratio turned out to be 0.97 ± 0.054.

GGTGTCGTG: the switch fluorescence ratio was 0.98 ± 0.024.

Consider TTCTTAGAAA, for which the switch fluorescence ratio came to 0.991 ± 0.019.

On to AGTTGCTTCG, for which the switch fluorescence ratio is 0.975 ± 0.026.

Take CTTAGGGGCG: the switch fluorescence ratio stood at 0.976 ± 0.024.

Turning to GCGGCTGTCG, the switch fluorescence ratio was 0.948 ± 0.085.

In the case of CGGTCCAGTA, the switch fluorescence ratio amounted to 0.912 ± 0.048.

ATATTTTCAG: the switch fluorescence ratio was 0.994 ± 0.012.

Consider ACGAGGTTCT, for which the switch fluorescence ratio amounted to 1.016 ± 0.003.

Consider GGAGGGACTG, for which the switch fluorescence ratio turned out to be 1.06 ± 0.17.

In the case of TAAGATATTA, the switch fluorescence ratio turned out to be 0.998 ± 0.02.

Turning to TCAGGGCATG, the switch fluorescence ratio was found to be 1.04 ± 0.043.

As for GAGAAGCAGT, the switch fluorescence ratio came out at 1 ± 0.024.

As to CGATTCACTT, the switch fluorescence ratio was 1.02 ± 0.021.

For the sequence GGGGACGAGG, the switch fluorescence ratio stood at 0.999 ± 0.028.

For ACGTTGTTTG, the switch fluorescence ratio was 0.983 ± 0.02.

For the sequence TCGGATGCGT, the switch fluorescence ratio was found to be 1.03 ± 0.035.

Regarding GTGTGTTGGG, the switch fluorescence ratio worked out at 0.984 ± 0.026.

TGTGTTTGGG: the switch fluorescence ratio worked out at 0.987 ± 0.038.

On to ACAGTGGCAT, for which the switch fluorescence ratio worked out at 0.997 ± 0.034.

Regarding TCACAAGTTG, the switch fluorescence ratio was 1.01 ± 0.019.

Regarding GGTACCTTAG, the switch fluorescence ratio was determined as 1.059 ± 0.0087.

As to AACGGGCTAG, the switch fluorescence ratio came to 0.999 ± 0.014.

As to GAACCATGTT, the switch fluorescence ratio was 0.977 ± 0.014.

Consider CACTCCCGGA, for which the switch fluorescence ratio turned out to be 1.15 ± 0.16.

For the sequence GTTTAAATTC, the switch fluorescence ratio came out at 1 ± 0.08.

Turning to AAGCTGGTTT, the switch fluorescence ratio came out at 0.982 ± 0.032.

On to AAAACATCGC, for which the switch fluorescence ratio came out at 1.015 ± 0.0029.

Turning to AACGGGAGAT, the switch fluorescence ratio came to 0.991 ± 0.048.

Take AGGTTTGGCT: the switch fluorescence ratio was determined as 1.01 ± 0.028.

With CTAATATCAC, the switch fluorescence ratio was found to be 1.02 ± 0.012.

With AGGAATCTAG, the switch fluorescence ratio turned out to be 0.967 ± 0.03.

For GACTTTTCCT, the switch fluorescence ratio was 1.3 ± 0.41.

For the sequence GGGGCTTAGT, the switch fluorescence ratio was determined as 1.03 ± 0.017.

As to TCGCGAATGG, the switch fluorescence ratio was found to be 1.11 ± 0.02.

As to AACTGGGGGC, the switch fluorescence ratio worked out at 1 ± 0.031.

Regarding GATGATGAGG, the switch fluorescence ratio is 0.9961 ± 0.0073.

GATTATGCGG: the switch fluorescence ratio was determined as 0.9849 ± 0.006.

With TTGAGTTATT, the switch fluorescence ratio is 0.96 ± 0.031.

With CTTATATATG, the switch fluorescence ratio was determined as 0.987 ± 0.017.

For AGGAGATACT, the switch fluorescence ratio is 1.09 ± 0.15.

In the case of TTCCCGATCA, the switch fluorescence ratio amounted to 1.01 ± 0.018.

With TGAGCCGCGG, the switch fluorescence ratio is 1.004 ± 0.0095.

Take GGCACTAGAC: the switch fluorescence ratio is 1.09 ± 0.11.

In the case of AACGACTGGG, the switch fluorescence ratio was found to be 0.997 ± 0.051.

Take TTTTCATGGG: the switch fluorescence ratio stood at 0.995 ± 0.013.

As for CTGTGCTAGG, the switch fluorescence ratio worked out at 1.01 ± 0.011.

In the case of GACATGGGAT, the switch fluorescence ratio was 1.01 ± 0.037.

Take TAGTAGTCGG: the switch fluorescence ratio came out at 0.963 ± 0.036.

Turning to TTTCAAATGT, the switch fluorescence ratio worked out at 1.11 ± 0.17.

With GTGTGGAGGG, the switch fluorescence ratio came out at 1.016 ± 0.0016.

On to TGGGCAAAAA, for which the switch fluorescence ratio is 1.01 ± 0.011.

With CGTTTTGCGG, the switch fluorescence ratio was found to be 1.04 ± 0.052.

As to GAGTAGACGT, the switch fluorescence ratio was determined as 0.998 ± 0.049.

For the sequence ATACCTAGCT, the switch fluorescence ratio came to 1.05 ± 0.019.
